According to article doi:10.1101/2022.01.21.477187 (bioRxiv, 2022):

Assays:
[1] = target: the molecule itself; experiment: native gel or EMSA; native PAGE of purified CENP-E483; species at ~100 kDa and ~230 kDa
[2] = target: the molecule itself; experiment: single-molecule photobleaching steps and initial intensity (TIRF); 0.5 nM fluorescent motor adsorbed non-specifically on silanised coverslips, BRB80 with oxygen scavengers; bleaching steps counted by hand; K560-2mNG as intensity reference

Protein	stoichiometry N [1]	binding result [2]
human CENP-E483 followed by two tandem mNeonGreen fluorophores (domain or fragment, UniProt Q02224 1-483, looked up, CENP-E, human, N-terminal truncation with the motor domain and the first predicted coiled-coil (334-401); Codon-optimised synthetic gene in pFastBac1; predicted monomer mass 109 kDa with the tags; also called truncated CENP-E483; source: Sf9 cells (baculovirus), purified (HisTrap HP, Superose 6 Increase); not shown: 2x tandem mNeonGreen, C-terminal, kept) MAEEGAVAVCVRVRPLNSREESLGETAQVYWKTDNNVIYQVDGSKSFNFDRVFHGNETTKNVYEEIAAPIIDSAIQGYNGTIFAYGQTASGKTYTMMGSEDHLGVIPRAIHDIFQKIKKFPDREFLLRVSYMEIYNETITDLLCGTQKMKPLIIREDVNRNVYVADLTEEVVYTSEMALKWITKGEKSRHYGETKMNQRSSRSHTIFRMILESREKGEPSNCEGSVKVSHLNLVDLAGSERAAQTGAAGVRLKEGCNINRSLFILGQVIKKLSDGQVGGFINYRDSKLTRILQNSLGGNAKTRIICTITPVSFDETLTALQFASTAKYMKNTPYVNEVSTDEALLKRYRKEIMDLKKQLEEVSLETRAQAMEKDQLAQLLEEKDLLQKVQNEKIENLTRMLVTSSSLTLQQELKAKRKRRVTWCLGKINKMKNSNYADQFNIPTNITTKTHKLSINLLREIDESVCSESDVFSNTLDTLSEIE	2	–
truncated human CENP-E754 containing five predicted coiled-coils of the native stalk (domain or fragment, UniProt Q02224 1-754, looked up, CENP-E, human, N-terminal truncation with the motor domain and five predicted coiled-coils; source: Sf9 cells (baculovirus), purified (HisTrap HP, Superose 6 Increase); not shown: 2x tandem mNeonGreen, C-terminal, kept) MAEEGAVAVCVRVRPLNSREESLGETAQVYWKTDNNVIYQVDGSKSFNFDRVFHGNETTKNVYEEIAAPIIDSAIQGYNGTIFAYGQTASGKTYTMMGSEDHLGVIPRAIHDIFQKIKKFPDREFLLRVSYMEIYNETITDLLCGTQKMKPLIIREDVNRNVYVADLTEEVVYTSEMALKWITKGEKSRHYGETKMNQRSSRSHTIFRMILESREKGEPSNCEGSVKVSHLNLVDLAGSERAAQTGAAGVRLKEGCNINRSLFILGQVIKKLSDGQVGGFINYRDSKLTRILQNSLGGNAKTRIICTITPVSFDETLTALQFASTAKYMKNTPYVNEVSTDEALLKRYRKEIMDLKKQLEEVSLETRAQAMEKDQLAQLLEEKDLLQKVQNEKIENLTRMLVTSSSLTLQQELKAKRKRRVTWCLGKINKMKNSNYADQFNIPTNITTKTHKLSINLLREIDESVCSESDVFSNTLDTLSEIEWNPATKLLNQENIESELNSLRADYDNLVLDYEQLRTEKEEMELKLKEKNDLDEFEALERKTKKDQEMQLIHEISNLKNLVKHAEVYNQDLENELSSKVELLREKEDQIKKLQEYIDSQKLENIKMDLSYSLESIEDPKQMKQTLFDAETVALDAKRESAFLRSENLELKEKMKELATTYKQMENDIQLYQSQLEAKKKMQVDLEKELQSAFNEITKLTSLIDGKVPKDLLCNLELEGKITDLQKELNKEVEENEALREEVILLSELKSLPS	–	binds
